Laboratory results as given in the supplement of paper PMC10899765.

How the values were obtained:
Conditions in all cases: 20 nM; 72 h
MCF10A [1] = assay: percent viability (nuclei count relative to siNT); higher = more viable cells
Method: (§1)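 After 72 h, cells were fixed and stained with Hoechst and anti-fibrillarin, and nucleoli per nucleus were counted with CellProfiler. Values are plate-adjusted percent effect for the one-nucleolus and 5+ nucleoli phenotypes, normalised to siNT (0%) and to the positive controls siNOL11 or siKIF11 (100%), as the mean of biological triplicates. Percent viability is the nuclei count relative to siNT.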

MCF10A [2] = assay: 5+ nucleoli phenotype percent effect (relative to siNT 0% and siKIF11 100%); higher = more cells with five or more nucleoli
Method: as §1

MCF10A [3] = assay: one-nucleolus phenotype percent effect (relative to siNT 0% and siNOL11 100%); higher = more cells with one nucleolus (ribosome biogenesis inhibition)
Method: as §1

Row | Sequence | percent viability (MCF10A [1]) [%] | 5+ nucleoli phenotype percent effect (MCF10A [2]) [%] | one-nucleolus phenotype percent effect (MCF10A [3]) [%]
1 | CUGGGCUCGGGACGCGCGGCU [hsa-miR-4674] | 31.3 | -33.5 | 18.5
2 | CUGGGGAGAUCCUCGAGGUUGG [hsa-miR-3150a-3p] | 18.9 | -16.4 | 23.4
3 | CUGGGGAGUGGCUGGGGAG [hsa-miR-6763-5p] | 29.7 | -2.28 | 30.5
4 | CUGGGGGACGCGUGAGCGCGAGC [hsa-miR-4665-5p] | 31.2 | 9.32 | 18.8
5 | CUGGGGGGAGGAGACCCUGCU [hsa-miR-7109-5p] | 38.9 | -2.63 | 29.9
6 | CUGGGGGUGGGGGGCUGGGCGU [hsa-miR-6803-5p] | 86.6 | 16 | -13.5
7 | CUGGGGUUCUGAGACAGACAGU [hsa-miR-3170] | 9.55 | -46.2 | 40.9
8 | CUGGGUGAGGGCAUCUGUGGU [hsa-miR-6736-5p] | 24.3 | -27 | 34.4
9 | CUGGGUUGGGCUGGGCUGGG [hsa-miR-4507] | 28.4 | -11.1 | -1.41
10 | CUGGUACAGGCCUGGGGGACAG [hsa-miR-150-3p] | 66.2 | 1.02 | 11
11 | CUGGUUUCACAUGGUGGCUUAG [hsa-miR-29b-2-5p] | 43.4 | 7.64 | -3.17
12 | CUGUAAUAUAAAUUUAAUUUAUU [hsa-miR-2054] | 168 | 28 | -17.6
13 | CUGUACAACCUUCUAGCUUUCC [hsa-let-7c-3p] | 74.2 | -7.45 | -4.89
14 | CUGUACAGCCUCCUAGCUUUCC [hsa-let-7a-2-3p] | 43.3 | -34.3 | 2.44
15 | CUGUACAGGCCACUGCCUUGC [hsa-let-7g-3p] | 55.1 | -28.3 | -2.69
16 | CUGUAUGCCCUCACCGCUCA [hsa-miR-675-3p] | 37.8 | -14.5 | 0.624
17 | CUGUCCUAAGGUUGUUGAGUU [hsa-miR-676-3p] | 20.8 | 29.3 | -12
18 | CUGUGCGUGUGACAGCGGCUGA [hsa-miR-210] | 56.6 | -13.9 | -1.99
19 | CUGUGGGCUCAGCGCGUGGGG [hsa-miR-4322] | 31.3 | -30.6 | 28.2
20 | CUGUGGGCUCAGCUCUGGG [hsa-miR-4265] | 27.1 | -38.1 | 42.3

Row | Sequence | percent viability (MCF10A [1]) [%] | 5+ nucleoli phenotype percent effect (MCF10A [2]) [%] | one-nucleolus phenotype percent effect (MCF10A [3]) [%]
21 | CUGUUGCCACUAACCUCAACCU [hsa-miR-744-3p] | 56 | -44.1 | 27.3
22 | CUUAGACUGCCAGACUCCCUGA [hsa-miR-7702] | 163 | 59.3 | -29.9
23 | CUUAGAUUAGAGGAUAUUGUU [hsa-miR-8061] | 73.7 | 58.8 | -12.7
24 | CUUAGCAGGUUGUAUUAUCAUU [hsa-miR-374b-3p] | 67.5 | -9.55 | -6.79
25 | CUUAUAUCAGAGGCUGUGGG [hsa-miR-6083] | 40.8 | -34.4 | 28.6
26 | CUUAUCAGAUUGUAUUGUAAUU [hsa-miR-374a-3p] | 160 | 33 | -24.3
27 | CUUCCAGACGCUCCGCCCCACGUCG [hsa-miR-3180-5p] | 67.4 | 28.4 | -9.39
28 | CUUCCCCCCAGUAAUCUUCAUC [hsa-miR-3679-3p] | 88.6 | -16.6 | 4.01
29 | CUUCCGCCCCGCCGGGCGUCG [hsa-miR-718] | 69 | 30.6 | -13.8
30 | CUUCCGGUCUGUGAGCCCCGUC [hsa-miR-4664-3p] | 36.8 | -1.01 | 14.5
31 | CUUCCUCGUCUGUCUGCCCC [hsa-miR-1238-3p] | 74.5 | -4.82 | 13.2
32 | CUUCUCUUCUCUCCUUCCCAG [hsa-miR-6809-3p] | 31 | -23.7 | 17.9
33 | CUUCUGAUCAAGAUUUGUGGUG [hsa-miR-4762-3p] | 30.5 | -38.7 | 18.9
34 | CUUCUGCCUGCAUUCUACUCCCAG [hsa-miR-6738-3p] | 51.1 | -13.9 | 12.5
35 | CUUCUUGUGCUCUAGGAUUGU [hsa-miR-578] | 32.6 | -13.1 | 19.6
36 | CUUGAGUCGUGCCUUUCUGAAUG [hsa-miR-8081] | 95.5 | -17.9 | 14
37 | CUUGCCAUCCUGGUCCACUGCAU [hsa-miR-4776-3p] | 20.6 | -38.5 | 25.4
38 | CUUGGAUUUUCCUGGGCCUCAG [hsa-miR-5004-3p] | 51.4 | -12 | 4.88
39 | CUUGGCACCUAGCAAGCACUCA [hsa-miR-1271-5p] | 91.1 | 68.8 | -2.87
40 | CUUGGGAGCCCUGUUAGACUC [hsa-miR-887-5p] | 176 | 76 | -32.3

Row | Sequence | percent viability (MCF10A [1]) [%] | 5+ nucleoli phenotype percent effect (MCF10A [2]) [%] | one-nucleolus phenotype percent effect (MCF10A [3]) [%]
41 | CUUGGGGCAUGGAGUCCCA [hsa-miR-4260] | 37.7 | 9.54 | -6.43
42 | CUUGGUUCAGGGAGGGUCCCCA [hsa-miR-659-3p] | 34.6 | -6.48 | 37.6
43 | CUUUCAGUCAGAUGUUUGCUGC [hsa-miR-30d-3p] | 131 | 59.2 | -17.5
44 | CUUUCAGUCGGAUGUUUACAGC [hsa-miR-30e-3p] | 126 | 14.5 | -11.8
45 | CUUUCAGUCGGAUGUUUGCAGC [hsa-miR-30a-3p] | 86.1 | -31 | 1.29
46 | CUUUGAGCACAUGAGCAGACGGA [hsa-miR-8055] | 92.5 | -14.2 | -6.93
47 | CUUUGCUUCCUGCUCCCCUAG [hsa-miR-6885-3p] | 41.6 | -17.3 | -5.84
48 | CUUUUUGCGGUCUGGGCUUGC [hsa-miR-129-5p] | 39.8 | -6.61 | 8.91
49 | GAAAACGACAAUGACUUUUGCA [hsa-miR-548ad] | 129 | 40.5 | -29.2
50 | GAAAAUCCUUUUUGUUUUUCCAG [hsa-miR-4668-3p] | 72.8 | 28.5 | -14.6
51 | GAAAAUGAUGAGUAGUGACUGAUG [hsa-miR-3662] | 88.3 | 57.8 | -17.5
52 | GAAAGAGAGCUGAGUGUG [hsa-miR-4311] | 26.3 | -27.3 | 31.2
53 | GAAAGCGCUUCCCUUUGCUGGA [hsa-miR-518a-3p] | 59.1 | -15.5 | 17.4
54 | GAAAGCGCUUCUCUUUAGAGG [hsa-miR-518f-3p] | 63.6 | -8.13 | 17.1
55 | GAAAGUAAUUGCUGUUUUUGCC [hsa-miR-548aq-5p] | 118 | 16.5 | -13.4
56 | GAAAGUACAGAUCGGAUGGGU [hsa-miR-8054] | 55.8 | 24.3 | -3.34
57 | GAAAGUGCUUCCUUUUAGAGGC [hsa-miR-526b-3p] | 105 | 57.2 | -23.4
58 | GAAAUCAAGCGUGGGUGAGACC [hsa-miR-551b-5p] | 57.5 | 40.3 | -15.5
59 | GAACCCAUGAGGUUGAGGCUGCAGU [hsa-miR-1273d] | 39.1 | -8.88 | 3.74
